This note sets out measurements from paper PMC12260418 (Proceedings of the National Academy of Sciences of the …, 2025).

Residue numbers refer to the chain shown, from its start. Where no end group is shown, it is not given here.

The chains are these.
B1: Recombinant TEAD1 (S210-D426) (domain or fragment)
chain: SIGTTKLRLVEFSAFLEQQRDPDSYNKHLFVHIGHANHSYSDPLLESVDIRQIYDKFPEKKGGLKELFGKGPQNAFFLVKFWADLNCNIQDDAGAFYGVTSQYESSENMTVTCSTKVCSFGKQVVEKVETEYARFENGRFVYRINRSPMCEYMINFIHKLKHLPEKYMMNSVLENFTILLVVTNRDTQETLLCMACVFEVSNSEHGAQHHIYRLVKD
B2: biotinylated WT VGLL4 peptide (residues 202-259) (peptide)
peptide: ATTCDPVVEEHFRRSLGKNYKEPEPAPNSVSITGSVDDHFAKALGDTWLQIKAAKDGA
modifications: also: biotinylated, position not given here
B3: biotinylated VGLL4 peptide (residues 202-259), TDU1 mutant (peptide)
peptide: B2 peptide with H11A, F12A
modifications: also: biotinylated, position not given here

One assay addresses TEAD1 (Homo sapiens, UniProt P28347). The assay is described as follows: SPR of recombinant TEAD1 and VGLL4 peptide with compound. It counts as binding.
The target in assay [1] is B2. The experiment in a line: SPR. In general terms: In SPR one partner is held on a chip, and binding of the other changes the refractive index at the surface.
For assay [2], the target named is B2. The experiment in a line: SPR. This is another data set of the same source.
The target in assay [3] is B1. The assay is described as follows: SPR.

As for GNE-7883, the “SPR of recombinant TEAD1 and VGLL4 peptide with compound; TEAD1 AP-MS in cells” value at TEAD1 was ~ 2 fold change in VGLL4-TEAD1 KD.
B1: the “fold increase in affinity with VT-103 against DMSO” value in assay [1] is ~12 fold. For the same molecule, in assay [2], the “fold decrease of KD with GNE-7883 against DMSO” value is ~2 fold.
Consider B2, for which the Kd – broadly, the constant that tells how readily two partners part at equilibrium – in assay [3] was ~500 nM.
As for B3, the binding result in assay [3] is “binds”.
